The values that follow come from PMC6200708, “Tannerella forsythia Tfo belongs to Porphyromonas gingivalis HmuY-like family of proteins but differs in heme-binding properties” (Bioscience Reports, 2018).

For one test, the target named is HmuY (Porphyromonas gingivalis, UniProt A2BCY8). The experiment in a line: UV-visible difference-spectrum heme titration of purified protein, one-site model; CD and MCD. The test is classed as binding.
For test [1], the target named is Porphyromonas gingivalis A7436 HmuY protein (Porphyromonas gingivalis A7436). Nature of the test: SEC; holo protein (with heme), under oxidizing conditions. (In general: SEC sorts molecules by how far they enter the pores of the column.)
Test [2] has the same target. The experiment in a line: SDS/PAGE; purified protein run on SDS/PAGE; samples solubilized at 37°C for 1 h or at 100°C for 5 min.
Test [3] concerns the target Tannerella forsythia ATCC 43037 Tfo protein (Tannerella forsythia ATCC 43037). The experiment in a line: SEC; holo protein (with heme), under reducing conditions.

Usually Kd stands for the equilibrium constant for the complex coming apart. High values mean weaker binding, low ones tighter binding. `C=CC1=C(C)C2=Cc3c(C=C)c(C)c4[n]3[Fe][n]3c(c(C)c(CCC(=O)O)c3=CC3=NC(=C4)C(C)=C3CCC(=O)O)=CC1=N2` [heme] gave a Kd on HmuY of less than 1 nM. In general, stoichiometry N refers to the number of molecules, sites or subunits per partner or assembly. With “Porphyromonas gingivalis A7436 HmuY protein (natural protein)”, the stoichiometry N in test [1] and in test [2] was 2 each time.

“Tannerella forsythia ATCC 43037 Tfo protein (natural protein)” showed a stoichiometry N in test [3] of 2.
